Measurements reported in US20260055190A1, “ANTIBODIES FOR PLATELET FCyRIIA AND RELATED METHODS OF USE” (UNIVERSITY OF VERMONT AND STATE AGRICULTURAL COLLEGE, priority 2022, published 2026).
Numbering of substitutions follows the chain as printed. Entries after “also recorded” stand apart in the source; their conditions may differ. Values belong to the molecule of their own block, whether it stands above or below them.

What was measured:
Megakaryocyte cell line = test: IFNγ effect on FcγRIIa expression by megakaryocyte cell line; format: cell-based; conditions: IFNγ treatment, FIG. 10
Excerpt: The graphs on the lower aspect of the figure show evidence of differentiation of the stem cells into megakaryocytes.

[1] = test system: human stem cell derived Megakaryocytes; test: IFNγ effect on FcγRIIa expression by human stem cell derived megakaryocytes; format: cell-based; conditions: IFNγ treatment, FIG. 11
Excerpt: The graphs on the lower aspect of the figure show evidence of differentiation of the cells into megakaryocytes.

[2] = target: FcγRIIa on non-fixed human platelets (also as present in platelet lysates) (human) (UniProt P12318); test: cell-based or functional assay
FcγRIIa = test: Phosphorylation of FcγRIIa during platelet activation (immunoprecipitation, Western blot with anti-phosphotyrosine 4G10); format: cell-based, human
Protocol: FIGS. 1A-1E are western blots and graphs showing that platelet activation results in FcγRIIa being phosphorylated: Platelets (2×10^8 in 0.5 ml) from low-risk subjects isolated with the use of gel filtration were exposed to no agonist (FIG. 1E) or to thrombin (50 nM) (FIG. 1A), convulxin (10 ng/ml) (FIG. 1B), ADP (25 μM) (FIG. 1C), and PAF (100 nM) (FIG. 1D) for selected intervals before preparation of platelet lysates. FcγRIIa was separated by immunoprecipitation and Western blots were probed with an antiphosphotyrosine antibody (4G10), stripped, and re-probed with anti-FcγRIIa to confirm equal loading (data not shown). Fluorescence intensity of bands was quantified with the use of a Li-Cor system. Results (n=3-5 for each condition) are peak intensity that is not altered by adjusting the contrast of the image or the size of the area of interest, and were compared with those obtained when no agonist was used (Student's t test, *p<0.05, **p<0.01). […]
Immunoprecipitation was performed overnight at 4° C. with the use of goat anti-CD32A/C (Santa Cruz Biotechnology, Santa Cruz, Calif.) or a mouse anti-phosphotyrosine conjugated with magnetic beads (4G10, Millipore, Billerica, Mass.). […] Bands were detected with the use of use of a Li-Cor Odyssey Infrared Imaging system (Li-Cor Biosciences, Lincoln, Nebr.) or chemiluminescence (Amersham/General Electric Healthcare, Piscataway, N.J.).

[3] = target: T1, FcγRIIa on formaldehyde-fixed human platelets (human, UniProt P12318 34-317, exposed to formaldehyde fixative (residues not stated)); test: platelets of two subjects, fixed (FIG. 29)
T1 construct: Same receptor as m3, but on platelets fixed before exposure to the antibody; also called FcγRIIa on fixed platelets
T1 sequence: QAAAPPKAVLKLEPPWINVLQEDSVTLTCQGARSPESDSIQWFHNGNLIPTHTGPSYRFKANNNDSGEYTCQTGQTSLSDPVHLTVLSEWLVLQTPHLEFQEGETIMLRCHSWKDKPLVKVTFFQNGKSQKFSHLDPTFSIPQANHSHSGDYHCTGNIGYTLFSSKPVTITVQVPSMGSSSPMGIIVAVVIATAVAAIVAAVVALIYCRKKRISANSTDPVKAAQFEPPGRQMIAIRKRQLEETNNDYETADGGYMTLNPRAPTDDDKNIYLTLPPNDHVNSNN

[4] = target: T2, FcγRIIa on non-fixed human platelets (also as present in platelet lysates) (human, UniProt P12318 34-317); test: platelets of two subjects, non-fixed (FIG. 29)
T2 construct: Endogenous receptor of platelets from human subjects; In immunoprecipitation experiments the receptor came from platelet lysates; also called platelet FcγRIIa; CD32
T2 sequence: T1 sequence

FcγRIIa on platelets = target: T3, FcγRIIa on platelets (Homo sapiens, UniProt P12318); test: Flow cytometry binding/quantification of FcγRIIa on fixed and non-fixed platelets; conditions: FIG. 29
T3 construct: endogenous in cells; host or cells: platelets from subjects' blood samples, formaldehyde-fixed or non-fixed
T3 sequence (P12318 34-317): T1 sequence with G54Q
Excerpt: One objective was to identify an antibody that was capable of quantifying FcγRIIa on the surface of platelets that were fixed, similar to quantification of FcγRIIa on non-fixed platelets. To make this assessment, selected antibodies were fluorochrome labeled. An objective was to identify a clone that could quantify FcγRIIa on the surface of fixed platelets within 10% of the quantification of previously-known antibodies on non-fixed platelets. Based on these experiments, two clones were identified, they produced the antibodies FcYRIIa-5G1 and FcYRIIa-11F9 described above.
Lysis of red blood cells can also be performed by the addition of 3% acetic acid (120 μl) to 5 μl of blood. • Incubate for 15 minutes • Add 800 μl PBS • Centrifuge for 2 minutes at 1,200 g • Decant liquid • Re-suspend platelet pellet in 1,000 μl PBS • Centrifuge for 2 minutes at 1,200 g • Decant liquid • Re-suspend platelet pellet in 1,000 μl PBS • Centrifuge for 2 minutes at 1,200 g • Re-suspend platelet pellet in 800 μl PBS with 0.2% BSA and store platelets at room temperature for at least 1 hour before assay (blocking step) • Assay tube final volume=35 μl, adding: • 5 μl of re-suspended platelet • 0.5 μg of 5G1-PE antibody • 2 μl of CD42bPECy5 (Becton Dickinson) • QS with PBS/BSA 0.2% • Incubate antibodies and platelets for 1 hours at room temperature • Dilute with 500 μl of PBS • Analyze with flow cytometry
• Analyze platelet samples using template 032522 FCquant 5G1R-PE 375V_T. Set acquisition volume to 200 ul and run samples at 200 ul/min. count 10,000 events in platelet gate (CD42b positive events). • Platelets are first gated on a FSC SSC plot • A second gate for CD42b PECY5 positive events is created • A histogram plot gated on the CD42b positive events is created. A gate is set to the right of a non-immune IgG control. The x-mean of the histogram gate positive for 5G1R-PE binding is reported • Assay tube for IgG control, adding: • 5 μl of re-suspended platelet • 2 μl of IgG-PE • 2 μl of CD42bPECy5 (Becton Dickinson) • 26 μl PBS/BSA 0.2% […]

[5] = target: T2, FcγRIIa on non-fixed human platelets …; test: immunoprecipitation with platelet lysates
[6] = target: T1, FcγRIIa on formaldehyde-fixed human …; test: fluorochrome labeled antibody on fixed platelets

- ADP induced activation of platelets (surface expression of P-selectin), fold induction [2]: 1.5 fold
Molecule: fibrinogen (from UniProt P02671 20-629; P02675 31-491; P02679 27-437)

- ADP-induced activation of platelets (surface expression of P-selectin), fold induction [2]: 3.9 fold
Molecule: coagulation Factor XIII (from UniProt P00488 2-732) (enzyme)

- binding result [3]: binds
- binding result [4]: binds
B1: Antibody FcYRIIa-5G1 (antibody, V domains shown)
VH: EVQLQESGPELVKPGASVKISCKASGYTFTTYYIHWVKQRPGQGLEWIGWIFPGSSNTFYNEKFKGKATLTADTSAITAYMQLNSLTSEDSAVYFCSRYYYDYGYWGQGTLVTVSA
VL: ENVLTQSPAIMSASPGEKVTMTCSASSSVRYMQWYQQKSNTSPKLWIYDTSKLASGVPGRFSGSGSGNSYFLTISSMEAEDVATYHCFQGSGYPLTFGGGTKLEIK
notes: Monoclonal antibody from a mouse hybridoma; Fluorochrome (phycoerythrin) labelled for flow cytometry; also called 5G1 antibody; 5G1-PE

- binding result [5]: binds
- binding result [6]: binds
B3: Antibody FcYRIIa-11F9 (antibody, V domains shown)
VH: EVQLQESGPELVKPGASVRISCKASGYTFTNSYMHWVKQRPGQGLEWIGWIYPENINTYYNEKFKGKATLTADRSSSTAYMQLNSLASEDSAVYFCARFYYGFGYWGQGTTLTVSS
VL: DIVMTQSHKFMSTSVGDRVIITCKASQNVISAVAWYQQKPGHSPKLLIYWASTRHTGVPDRFTGSGSGTDFTLTINSVQSEDLADYFCQQYGRYPYTFAGGTKLEIK
notes: Monoclonal antibody from a mouse hybridoma; also called 11F9 antibody

More lines, now with the values behind:

Molecule: IFNγ: cytokine that increases FcγRIIa expression by megakaryocytes
- expression of FcγRIIa by Megakaryocyte cell line (Megakaryocyte cell line): increases the expression of FcγRIIa
- expression of FcγRIIa by human stem cell derived Megakaryocytes [1]: increases the expression of FcγRIIa

Molecule: CCCCS(=O)(=O)N[C@@H](Cc1ccc(OCCCCC2CCNCC2)cc1)C(=O)O [tirofiban]
- agonist-induced activation of platelets (platelets; agonists thrombin, convulxin, ADP, PAF, PAC-1 binding or P-selectin, IV.3 100 μg/ml, PP2 20 μM, tirofiban 0.5 μg/ml): did not attenuate the activation of platelets
- activation of platelets caused by coagulation Factor XIII (platelets; summary in words): abolished
- amplification of platelet activation induced by fibrinogen (platelets; summary in words): not by tirofiban
- binding of PAC-1 to platelets (platelets; tirofiban 0.5 μg/ml): blocked completely the binding of PAC-1 to platelets; also recorded: abolished binding of PAC-1 to platelets
- agonist-induced surface expression of P-selectin (platelets; tirofiban, n=3 subjects, FIG. 5D): did not attenuate agonist-induced P-selectin expression

Molecule: CC(C)(C)n1nc(-c2ccc(Cl)cc2)c2c(N)ncnc21 [PP2]
- phosphorylation of FcγRIIa during platelet activation (FcγRIIa; IV.3 Fab 100 μg/ml, PP2 20 μM): prevented phosphorylation of FcγRIIa

Molecule: Fab fragment of IV.3
- ADP induced activation of platelets with added fibrinogen after pretreatment with IV.3 (100 µg/ml), fold induction [2]: 0.9 fold
- ADP-induced activation of platelets with added Factor XIII after pretreatment with IV.3 (100 µg/ml), fold induction [2]: 0.7 fold

Molecule: Nc1ncnc2c1ncn2[C@@H]1O[C@H](COP(=O)(O)OP(=O)(O)O)[C@@H](O)[C@H]1O [ADP, adenosine diphosphate]
- time after exposure at which phosphorylation of FcγRIIa was greatest (FcγRIIa; platelets from low-risk subjects, thrombin 50 nM, convulxin 10 ng/ml, ADP 25 μM, PAF 100 nM): 3 to 5 min

B2: FcYRIIa-5G1: monoclonal antibody binding FcγRIIa; heavy chain SEQ ID NO 4, light chain SEQ ID NO 9 (antibody, V domains shown)
VH: B1 VH
VL: B1 VL
- binding to FcγRIIa on fixed platelets compared with non-fixed platelets (FcγRIIa on platelets): binds to a greater extent to FcγRIIa on fixed platelets
- binding to FcγRIIa on fixed platelets (FcγRIIa on platelets; fixed platelets, two subjects): binds at a higher level on fixed platelets
- binding to FcγRIIa on non-fixed platelets versus commercially available antibody FLI8.26 (FcγRIIa on platelets; non-fixed platelets, two subjects): binds to a lesser extent than the commercially available antibody
